Here are results for 50 sequences from the supplement of paper PMC9112550, “Optimization of the antimicrobial peptide Bac7 by deep mutational scanning” (BMC Biology, 2022).
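Note: peptides expressed intracellularly from a pBAD plasmid library in pooled LB shake-flask culture, induced with 0.3% L-arabinose, DNA abundance read by NGS, three biological replicates, DESeq2 with apeglm shrinkage.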

The test system of this data set is Escherichia coli TOP10. The experiment in a line: shrunken log2 fold change of peptide-encoding DNA abundance (4.5 h post-induction vs induction); higher = less antimicrobial activity (less host growth inhibition). To be noted: time post-induction: 4.5 h; library: site-saturation at positions 5, 18, 19, 20.
In the case of RRIRDRPPRLPRPRPRPSRHPRP, the “shrunken log2 fold change” value was 0.0369.

In the case of RRIRGRPPRLPRPRPRPAKGPRP, the “shrunken log2 fold change” value came out at 0.0624.

In the case of RRIRSRPPRLPRPRPRPQWRPRP, the “shrunken log2 fold change” value was 0.11.

Consider RRIRGRPPRLPRPRPRPLLNPRP, for which the “shrunken log2 fold change” value was determined as 0.76.

As for RRIRSRPPRLPRPRPRPPNAPRP, the “shrunken log2 fold change” value came to 0.0817.

For the sequence RRIRQRPPRLPRPRPRPYPIPRP, the “shrunken log2 fold change” value is -0.00931.

As for RRIRTRPPRLPRPRPRPLCWPRP, the “shrunken log2 fold change” value was 0.0326.

As to RRIRFRPPRLPRPRPRPCGMPRP, the “shrunken log2 fold change” value was -0.24.

As to RRIRSRPPRLPRPRPRPAPGPRP, the “shrunken log2 fold change” value was determined as 0.54.

Turning to RRIRLRPPRLPRPRPRPFAWPRP, the “shrunken log2 fold change” value was -0.00134.

For the sequence RRIRTRPPRLPRPRPRPRALPRP, the “shrunken log2 fold change” value was found to be 0.116.

Consider RRIRKRPPRLPRPRPRPENPPRP, for which the “shrunken log2 fold change” value turned out to be 0.126.

In the case of RRIRERPPRLPRPRPRPDMVPRP, the “shrunken log2 fold change” value was 0.0162.

On to RRIRPRPPRLPRPRPRPRTIPRP, for which the “shrunken log2 fold change” value is 0.206.

Turning to RRIRERPPRLPRPRPRPASQPRP, the “shrunken log2 fold change” value was -0.0177.

On to RRIRNRPPRLPRPRPRPENVPRP, for which the “shrunken log2 fold change” value is -0.123.

Consider RRIRDRPPRLPRPRPRPMWDPRP, for which the “shrunken log2 fold change” value amounted to 0.00712.

With RRIRWRPPRLPRPRPRPQHNPRP, the “shrunken log2 fold change” value was -0.537.

For RRIRKRPPRLPRPRPRPGCEPRP, the “shrunken log2 fold change” value was 1.31.

As to RRIRERPPRLPRPRPRPQTWPRP, the “shrunken log2 fold change” value was 0.138.

As for RRIRNRPPRLPRPRPRPPMYPRP, the “shrunken log2 fold change” value was -0.25.

Take RRIRNRPPRLPRPRPRPCTHPRP: the “shrunken log2 fold change” value was -0.147.

In the case of RRIRHRPPRLPRPRPRPYFKPRP, the “shrunken log2 fold change” value is -1.03.

For RRIRMRPPRLPRPRPRPGWRPRP, the “shrunken log2 fold change” value was 1.15.

Take RRIRDRPPRLPRPRPRPFKMPRP: the “shrunken log2 fold change” value is -0.0853.

With RRIRRRPPRLPRPRPRPYHAPRP, the “shrunken log2 fold change” value was -0.0669.

With RRIRCRPPRLPRPRPRPGLSPRP, the “shrunken log2 fold change” value was -0.248.

In the case of RRIRYRPPRLPRPRPRPSEQPRP, the “shrunken log2 fold change” value is -0.0359.

As for RRIRERPPRLPRPRPRPFNDPRP, the “shrunken log2 fold change” value was -0.0864.

With RRIRYRPPRLPRPRPRPPGMPRP, the “shrunken log2 fold change” value is 0.0171.

For the sequence RRIRWRPPRLPRPRPRPIVLPRP, the “shrunken log2 fold change” value is -0.628.

With RRIRIRPPRLPRPRPRPHMGPRP, the “shrunken log2 fold change” value was -1.08.

Regarding RRIRNRPPRLPRPRPRPARHPRP, the “shrunken log2 fold change” value was 0.0771.

RRIRQRPPRLPRPRPRPNKFPRP: the “shrunken log2 fold change” value was -0.896.

Turning to RRIRFRPPRLPRPRPRPCCGPRP, the “shrunken log2 fold change” value was -0.221.

As to RRIRARPPRLPRPRPRPAWIPRP, the “shrunken log2 fold change” value was 0.116.

Consider RRIRVRPPRLPRPRPRPWDLPRP, for which the “shrunken log2 fold change” value worked out at 0.146.

On to RRIRIRPPRLPRPRPRPLHTPRP, for which the “shrunken log2 fold change” value is -0.456.

For the sequence RRIRNRPPRLPRPRPRPNTKPRP, the “shrunken log2 fold change” value is -0.306.

In the case of RRIRMRPPRLPRPRPRPTSNPRP, the “shrunken log2 fold change” value came to 0.00211.

As for RRIRSRPPRLPRPRPRPSIFPRP, the “shrunken log2 fold change” value was -0.511.

Take RRIRARPPRLPRPRPRPIMHPRP: the “shrunken log2 fold change” value was -0.171.

Turning to RRIRERPPRLPRPRPRPCFMPRP, the “shrunken log2 fold change” value was -0.231.

Regarding RRIRARPPRLPRPRPRPMTDPRP, the “shrunken log2 fold change” value is -0.414.

As for RRIRQRPPRLPRPRPRPDEKPRP, the “shrunken log2 fold change” value was 0.02.

As to RRIRERPPRLPRPRPRPIWMPRP, the “shrunken log2 fold change” value was determined as 0.0239.

For RRIRERPPRLPRPRPRPHHVPRP, the “shrunken log2 fold change” value was found to be 0.00979.

Regarding RRIRHRPPRLPRPRPRPGLTPRP, the “shrunken log2 fold change” value stood at 0.129.

For the sequence RRIRLRPPRLPRPRPRPTLMPRP, the “shrunken log2 fold change” value came out at 0.0897.

Regarding RRIRGRPPRLPRPRPRPQAMPRP, the “shrunken log2 fold change” value was -0.0164.
